This passage reports protein stability index results from the supplement of paper PMC10567573.

Sequences and labels used below:
B1: PDZK1 (parent)
chain: FQAKKIPIVSSLADPLDTPPDSKE
B2: ZNF511 (parent)
chain: YEHHYHTLHGNVCSFCKRAFPSGH
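Note: lentivirally expressed fusions sorted by FACS into six bins by GFP to DsRed ratio, PSI derived from sequencing read proportions per bin multiplied by bin number.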

In one data set the parent is B1. Put plainly: protein stability index of a GFP-peptide fusion (GPS, HEK-293T) (PSI 1-6); higher = more stable. The note with it: c terminus: a fixed tail appended.
For the variant FQAKKIPIVSSLADNLDTPPDSKE, the protein stability index stood at 3.64.

Turning to FQAKKIPIVSSLADALDTPPDSKE, the protein stability index is 3.61. The same measure, in the same setting: to FQAKKIPIVSSLADILDTPPDSKE belongs 3.53; to FQAKKIPIVSSLADMLDTPPDSKE, 3.11; to FQAKKIPIVSSLADFLDTPPDSKE, 3.23. The same measure, in the same setting: to FQAKKIPIVSSLADDLDTPPDSKE belongs 4.1; to FQAKKIPIVSSLADHLDTPPDSKE, 3.85. Still for that read-out and setting: the figure for FQAKKIPIVSSLADSLDTPPDSKE is 3.58; for FQAKKIPIVSSLADQLDTPPDSKE it is 3.71. As to FQAKKIPIVSSLADLLDTPPDSKE, the protein stability index worked out at 2.86. For the variant FQAKKIPIVSSLADPLDTPPGSKE, the protein stability index was found to be 2.89. As for FQAKKIPIVSSLADPLDTPPRSKE, the protein stability index turned out to be 2.76.

In the case of FQAKKIPIVSSYADPLDTPPDSKE, the protein stability index is 3.75.

Take FQAKKIPIVSSLADPLDTPGDSKE: the protein stability index stood at 4.28.

On to FQAKKIPIVSSLADPLDTPHDSKE, for which the protein stability index was found to be 3.53. The same measure, in the same setting: to FQAKKIPIVSSLADPLDTPLDSKE belongs 3.35; to FQAKKIPIVSSLADPLDTPFDSKE, 3.17; to FQAKKIPIVSSLADPLDTPMDSKE, 3.75. Consider FQAKKIPIVSSLADPLDTPADSKE, for which the protein stability index was determined as 4.05. As to FQAKKIPIVSSLADPLDTPKDSKE, the protein stability index came to 3.88.

Regarding FQAKKIPIVSSLADPLDTPWDSKE, the protein stability index is 2.62. On to FQAKKIPIVSSLADPLDTPTDSKE, for which the protein stability index was 3.58. On the same count and under the same terms, the figure for FQAKKIPIVSSLADPLATPPDSKE is 3.75; for FQAKKIPIVSSLADPLDTEPDSKE it is 3.35; for FQAKKIPIVSSLADPLDTWPDSKE it is 3.19. Still for that read-out and setting: to FQAKKIPIVSSLADPLDTDPDSKE belongs 3.87. In the case of FQAKKIPIVSSLADPLDTNPDSKE, the protein stability index was 3.88.

Take FQAKKIPIVSSLADPLDTMPDSKE: the protein stability index was determined as 3.72.

Take FQAKKIPIVSSLADPLDTTPDSKE: the protein stability index was 3.85.

In the case of FQAKKIPIVSSLADPLDTPPDSGE, the protein stability index was found to be 3.94. Turning to FQAKKIPIVSSLADPLDTPPDSVE, the protein stability index was determined as 3.33. Same read-out and setting: the figure for FQAKKIPIVSSLADPLDTPPDSRE is 3.23. FQAKKIPIVSSLADPLDGPPDSKE: the protein stability index came out at 3.62. On the same count and under the same terms, to FQAKKIPIVSSLADPLDVPPDSKE belongs 3.57; to FQAKKIPIVSSLADPLDMPPDSKE, 3.73.

FQAKKIPIVSSLADPLDNPPDSKE: the protein stability index turned out to be 3.48. Same read-out and setting: to FQAKKIPIVSSLADPLDHPPDSKE belongs 3.29; to FQAKKIPIVSSLADPLDEPPDSKE, 3.75; to FQAKKIPIVSSLADPLDYPPDSKE, 3.33.

As for FQAKKIPIVSSLAEPLDTPPDSKE, the protein stability index is 3.65. FQAKKIPIVSSLALPLDTPPDSKE: the protein stability index turned out to be 3.5. As to FQAKKIPIVSSLAVPLDTPPDSKE, the protein stability index turned out to be 4.1. The same measure, in the same setting: the figure for FQAKKIPIVSSLAMPLDTPPDSKE is 3.55; for FQAKKIPIVSSLAKPLDTPPDSKE it is 3.65. Same read-out and setting: to FQAKKIPIVSSLADPYDTPPDSKE belongs 3.47; to FQAKKIPIVSSLADPRDTPPDSKE, 3.77. The same measure, in the same setting: the figure for FQAKKIPIVSSLADPCDTPPDSKE is 3.72; for FQAKKIPIVSSLADPKDTPPDSKE it is 3.76; for FQAKKIPIVSSLADPMDTPPDSKE it is 3.79. Turning to FQAKKIPIVSSLADPGDTPPDSKE, the protein stability index came out at 3.85. Still for that read-out and setting: the figure for FQAKKIPIVSSLADPWDTPPDSKE is 2.99; for FQAKKIPIVSSLADPNDTPPDSKE it is 4.27.

In the next data set the parent is B2. The description is as above. The note with it: c terminus: a fixed tail appended.
Consider YEQHYHTLHGNVCSFCKRAFPSGH, for which the protein stability index was 2.19. The same measure, in the same setting: to YEGHYHTLHGNVCSFCKRAFPSGH belongs 3.04; to YEEHYHTLHGNVCSFCKRAFPSGH, 2.9. As for YEIHYHTLHGNVCSFCKRAFPSGH, the protein stability index was 2.18. On the same count and under the same terms, the figure for YEVHYHTLHGNVCSFCKRAFPSGH is 2.09; for YEHHGHTLHGNVCSFCKRAFPSGH it is 3.54. The same measure, in the same setting: the figure for YEHHQHTLHGNVCSFCKRAFPSGH is 3.28; for YEHHTHTLHGNVCSFCKRAFPSGH it is 3.67. The same measure, in the same setting: to YEHHCHTLHGNVCSFCKRAFPSGH belongs 3.95; to YEHHYHKLHGNVCSFCKRAFPSGH, 1.24; to YEHHYHVLHGNVCSFCKRAFPSGH, 1.85. For the variant YEHHYHGLHGNVCSFCKRAFPSGH, the protein stability index came out at 2.14. Same read-out and setting: to YEHHYHRLHGNVCSFCKRAFPSGH belongs 2.07; to YEHHYHPLHGNVCSFCKRAFPSGH, 2.2.

As for YEHHYHDLHGNVCSFCKRAFPSGH, the protein stability index turned out to be 2.64. The same measure, in the same setting: the figure for YEHHYHCLHGNVCSFCKRAFPSGH is 2.77; for YEHHYHMLHGNVCSFCKRAFPSGH it is 2.86; for YEHHYHHLHGNVCSFCKRAFPSGH it is 2.46.

Regarding YEHHYHTLHDNVCSFCKRAFPSGH, the protein stability index is 2.29. Still for that read-out and setting: the figure for YEHHYHTLHINVCSFCKRAFPSGH is 1.83; for YEHHYHTLHENVCSFCKRAFPSGH it is 2.39; for YEHHYHTLHCNVCSFCKRAFPSGH it is 2.46. On the same count and under the same terms, the figure for YEHHYHTLHPNVCSFCKRAFPSGH is 1.95; for YEHHYHTLHSNVCSFCKRAFPSGH it is 1.97; for YEHHYHTLHVNVCSFCKRAFPSGH it is 1.87. PEHHYHTLHGNVCSFCKRAFPSGH: the protein stability index is 2.98. For the variant CEHHYHTLHGNVCSFCKRAFPSGH, the protein stability index came out at 4.05.

Consider MEHHYHTLHGNVCSFCKRAFPSGH, for which the protein stability index was found to be 2.63. Take EEHHYHTLHGNVCSFCKRAFPSGH: the protein stability index is 3. Same read-out and setting: to YEHHYHTLHGNVCSFCKRAAPSGH belongs 2.41.

YEHHYHTLHGNVCSFCKRACPSGH: the protein stability index was 2.55. As to YEHHYHTLHGNVCSFCKRAYPSGH, the protein stability index is 2.25. On the same count and under the same terms, the figure for YEHHYHTLHGNVCSFCKRAMPSGH is 2.38. On the same count and under the same terms, the figure for YEHHYHTLHGNVCSFCKRASPSGH is 2.96; for YEHHYHTLHGNVCSFCKRAIPSGH it is 2.23. On the same count and under the same terms, the figure for YEHHYHTLHGNVCFFCKRAFPSGH is 2.03. Turning to YEHHYHTLHGNVCGFCKRAFPSGH, the protein stability index came out at 1.88. Still for that read-out and setting: to YEHHYHTLHGNVCQFCKRAFPSGH belongs 2.88. The same measure, in the same setting: to YEHHYHTLHGNVCEFCKRAFPSGH belongs 2.53; to YEHHYHTLHGNVCVFCKRAFPSGH, 1.38. As to YEHHYHTLHGNVCNFCKRAFPSGH, the protein stability index was determined as 2.57. Same read-out and setting: to YEHHYHTLHGNVCSFCLRAFPSGH belongs 2.4.
